Values of other authors, collected in paper PMC6120632.

Molecular target: Basigin (Homo sapiens) (UniProt P35613)
UniProt P35613, sequence (P35613 22-325): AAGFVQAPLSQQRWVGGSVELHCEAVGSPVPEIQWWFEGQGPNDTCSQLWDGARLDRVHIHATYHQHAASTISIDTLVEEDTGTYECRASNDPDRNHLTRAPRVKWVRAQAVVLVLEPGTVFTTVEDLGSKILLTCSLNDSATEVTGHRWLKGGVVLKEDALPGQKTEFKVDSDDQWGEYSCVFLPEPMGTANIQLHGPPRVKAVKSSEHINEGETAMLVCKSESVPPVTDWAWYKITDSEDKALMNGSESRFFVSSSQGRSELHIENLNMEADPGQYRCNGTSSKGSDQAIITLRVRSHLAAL

RH5 (from UniProt Q8IFM5)
Kd: 1000 nM
